Results reported in patent US20140072650A1, “GELATIN EXTRACT MADE FROM SKATE RAY SKIN AND ANTIHYPERTENSIVE COMPOSITION HAVING PEPTIDE ISOLATED FROM EXTRACT AS ACTIVE INGREDIENT” (PUKYONG NATIONAL UNIVERSITY INDUSTRY-UNIVERSITY CO, priority 2012, published 2014).

Target: angiotensin converting enzyme (Homo sapiens, UniProt P12821)
Test: ACE inhibition activity measurement (IC50)
Type: biochemical
Settings: FIG. 6; for ACE inhibition: isolated peptides
Experimental: The inventors of the present invention measured the ACE inhibition activities based on the process concentration with respect to the second hydrolysate containing a lower molecular weight among the gelatin extracts of the skins of a skate ray obtained from the above embodiments so as to develop a new hypertension therapy medicine which could be quickly absorbed by a human body and has a good effect, and the measurements were conducted in the method of measuring IC50 concentration which could inhibit 50% of the angiotensin converting enzyme in accordance with the angiotensin converting enzyme inhibition measurement method.
The inventors of the present invention isolated two active peptides by way of FPLC (Fast Protein Liquid Chromatography) with respect to the second hydrolysate so as to isolate the functional peptides having an antihypertensive activity contained in the second hydrolysate of the gelatin extract obtained from the skins of a skate ray. As a result of the analysis on the base sequence of the peptide, it was confirmed that the peptide had the following base sequence. In addition, the ACE inhibition (IC50) was checked in the earlier explained method so as to check the antihypertensive activity with respect to the peptides.

angiotensin converting enzyme, sequence (P12821 30-1306, species assumed): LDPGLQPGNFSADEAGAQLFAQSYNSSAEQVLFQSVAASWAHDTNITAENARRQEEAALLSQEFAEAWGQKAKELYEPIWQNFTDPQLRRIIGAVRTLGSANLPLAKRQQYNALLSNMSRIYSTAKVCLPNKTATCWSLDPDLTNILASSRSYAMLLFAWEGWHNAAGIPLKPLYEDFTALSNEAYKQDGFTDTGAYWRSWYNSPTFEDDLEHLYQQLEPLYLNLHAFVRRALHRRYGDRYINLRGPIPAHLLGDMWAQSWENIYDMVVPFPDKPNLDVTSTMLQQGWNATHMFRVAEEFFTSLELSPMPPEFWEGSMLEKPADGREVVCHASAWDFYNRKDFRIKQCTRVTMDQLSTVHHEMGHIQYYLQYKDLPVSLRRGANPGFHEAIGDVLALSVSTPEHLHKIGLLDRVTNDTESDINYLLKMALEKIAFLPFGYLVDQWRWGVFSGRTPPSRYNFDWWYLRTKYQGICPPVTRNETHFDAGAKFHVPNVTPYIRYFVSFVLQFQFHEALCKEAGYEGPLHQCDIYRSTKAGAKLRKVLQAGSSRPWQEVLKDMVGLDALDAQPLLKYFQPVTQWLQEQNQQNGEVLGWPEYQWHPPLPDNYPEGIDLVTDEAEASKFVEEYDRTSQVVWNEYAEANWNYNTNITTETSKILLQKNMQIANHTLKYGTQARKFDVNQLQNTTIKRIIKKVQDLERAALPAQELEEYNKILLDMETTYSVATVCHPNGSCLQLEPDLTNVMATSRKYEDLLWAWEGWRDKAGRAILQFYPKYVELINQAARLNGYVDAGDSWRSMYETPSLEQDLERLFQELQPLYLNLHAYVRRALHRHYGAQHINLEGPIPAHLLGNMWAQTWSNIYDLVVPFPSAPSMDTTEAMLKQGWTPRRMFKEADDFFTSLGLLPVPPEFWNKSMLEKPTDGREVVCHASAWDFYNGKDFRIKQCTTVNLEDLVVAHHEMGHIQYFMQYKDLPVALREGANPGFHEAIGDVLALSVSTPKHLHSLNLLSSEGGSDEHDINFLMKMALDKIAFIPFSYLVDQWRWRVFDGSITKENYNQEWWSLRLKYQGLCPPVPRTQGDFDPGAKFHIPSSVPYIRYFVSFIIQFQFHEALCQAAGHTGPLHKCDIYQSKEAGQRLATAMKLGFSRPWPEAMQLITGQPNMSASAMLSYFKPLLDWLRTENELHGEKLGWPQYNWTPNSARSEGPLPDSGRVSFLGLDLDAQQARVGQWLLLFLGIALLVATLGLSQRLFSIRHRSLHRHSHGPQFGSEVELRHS

| Substance | antihypertensive activity (ACE inhibition) compared with the other peptide | ACE inhibition |
| --- | --- | --- |
| MVGSAPGVL [SPI, peptide (829 Da) isolated by FPLC from the second hydrolysate] | higher antihypertensive activity as compared to the SP2 | have the ACE inhibition |
| LGPLGHQ [SP2, peptide (720 Da) isolated by FPLC from the second hydrolysate] | – | have the ACE inhibition |
